Assays:
[1] = biological target: soluble human IL-5R α (shIL-5R α) (human) (UniProt Q01344); assay: discussion of the ELISA results; assay not given
[2] = biological target: soluble human IL-5R α (shIL-5R α) (human) (UniProt Q01344); assay: ELISA method 2: purified antibody on plate-coated shIL-5R α, anti-human IgG detection

soluble human IL-5R α (shIL-5R α) (human), sequence (Q01344 other isoform, or with tags, fused parts or gaps limits assumed, form in doubt): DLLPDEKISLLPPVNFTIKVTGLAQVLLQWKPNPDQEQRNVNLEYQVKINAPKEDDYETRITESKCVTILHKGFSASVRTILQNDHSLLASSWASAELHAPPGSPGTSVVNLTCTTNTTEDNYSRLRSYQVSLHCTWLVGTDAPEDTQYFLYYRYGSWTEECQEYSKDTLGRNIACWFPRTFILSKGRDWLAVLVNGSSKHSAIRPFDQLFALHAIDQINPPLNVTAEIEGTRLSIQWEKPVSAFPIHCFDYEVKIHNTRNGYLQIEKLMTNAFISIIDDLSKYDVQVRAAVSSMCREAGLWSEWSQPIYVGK

B1: anti-human IL-5R α chain human CDR-grafted antibody KM8397 (antibody, human IgG1, V domains shown)
VH: EVQLVQSGAEVKKPGASVKVSCKASGYTFTSYVIHWVRQAPGQGLEWMGYINPYNDGTKYNERFKGRVTITADTSTSTAYMELSSLRSEDTAVYYCAREGIRYYGLLGDYWGQGTLVTVSS
VL: DIQMTQSPSSLSASVGDRVTITCGTSEDIINYLNWYQQKPGKAPKLLIYHTSRLQSGVPSRFSGSGSGTDFTLTISSLQPEDFATYYCQQGYTLPYTFGQGTKVEIK
- activity relative to KM1259 (fold of KM1259) [1]: 0.5
- reactivity relative to KM1399 (fold of KM1399) [2]: 0.5

— patent publication US7179464
